# From US20090099029
# B1: PTK2(FAK) (protein)
# chain: MAAAYLDPNLNHTPNSSTKTHLGTGMERSPGAMERVLKVFHYFESNSEPTTWASIIRHGDATDVRGIIQKIVDSHKVKHVACYGFRLSHLRSEEVHWLHVDMGVSSVREKYELAHPPEEWKYELRIRYLPKGFLNQFTEDKPTLNFFYQQVKSDYMLEIADQVDQEIALKLGCLEIRRSYWEMRGNALEKKSNYEVLEKDVGLKRFFPKSLLDSVKAKTLRKLIQQTFRQFANLNREESILKFFEILSPVYRFDKECFKCALGSSWIISVELAIGPEEGISYLTDKGCNPTHLADFTQVQTIQYSNSEDKDRKGMLQLKIAGAPEPLTVTAPSLTIAENMADLIDGYCRLVNGTSQSFIIRPQKEGERALPSIPKLANSEKQGMRTHAVSVSETDDYAEIIDEEDTYTMPSTRDYEIQRERIELGRCIGEGQFGDVHQGIYMSPENPALAVAIKTCKNCTSDSVREKFLQEALTMRQFDHPHIVKLIGVITENPVWIIMELCTLGELRSFLQVRKYSLDLASLILYAYQLSTALAYLESKRFVHRDIAARNVLVSSNDCVKLGDFGLSRYMEDSTYYKASKGKLPIKWMAPESINFRRFTSASDVWMFGVCMWEILMHGVKPFQGVKNNDVIGRIENGERLPMPPNCPPTLYSLMTKCWAYDPSRRPRFTELKAQLSTILEEEKAQQEERMRMESRRQATVSWDSGGSDEAPPKPSRPGYPSPRSSEGFYPSPQHMVQTNHYQVSGYPGSHGITAMAGSIYPGQASLLDQTDSWNHRPQEIAMWQPNVEDSTVLDLRGIGQVLPTHLMEERLIRQQQEMEEDQRWLEKEERFLKPDVRLSRGSIDREDGSLQGPIGNQHIYQPVGKPDPAAPPKKPPRPGAPGHLGSLASLSSPADSYNEGVKLQPQEISPPPTANLDRSNDKVYENVTGLVKAVIEMSSKIQPAPPEEYVPMVKEVGLALRTLLATVDETIPLLPASTHREIEMAQKLLNSDLGELINKMKLAQQYVMTSLQQEYKKQMLTAAHALAVDAKNLLDVIDQARLKMLGQTRPH
# B2: AKT2 (protein)
# chain: MNEVSVIKEGWLHKRGEYIKTWRPRYFLLKSDGSFIGYKERPEAPDQTLPPLNNFSVAECQLMKTERPRPNTFVIRCLQWTTVIERTFHVDSPDEREEWMRAIQMVANSLKQRAPGEDPMDYKCGSPSDSSTTEEMEVAVSKARAKVTMNDFDYLKLLGKGTFGKVILVREKATGRYYAMKILRKEVIIAKDEVAHTVTESRVLQNTRHPFLTALKYAFQTHDRLCFVMEYANGGELFFHLSRERVFTEERARFYGAEIVSALEYLHSRDVVYRDIKLENLMLDKDGHIKITDFGLCKEGISDGATMKTFCGTPEYLAPEVLEDNDYGRAVDWWGLGVVMYEMMCGRLPFYNQDHERLFELILMEEIRFPRTLSPEAKSLLAGLLKKDPKQRLGGGPSDAKEVMEHRFFLSINWQDVVQKKLLPPFKPQVTSEVDTRYFDDEFTAQSITITPPDRYDSLGLLELDQRTHFPQFSYSASIRE
# B3: EPHA1 (protein)
# chain: RSRRAQRQRQQRQRDRATDVDREDKLWLKPYVDLQAYEDPAQGALDFTRELDPAWLMVDTVIGEGEFGEVYRGTLRLPSQDCKTVAIKTLKDTSPGGQWWNFLREATIMGQFSHPHILHLEGVVTKRKPIMIITEFMENGALDAFLREREDQLVPGQLVAMLQGIASGMNYLSNHNYVHRDLAARNILVNQNLCCKVSDFGLTRLLDDFDGTYETQGGKIPIRWTAPEAIAHRIFTTASDVWSFGIVMWEVLSFGDKPYGEMSNQEVMKSIEDGYRLPPPVDCPAPLYELMKNCWAYDRARRPHFQKLQAHLEQLLANPHSLRTIANFDPRMTLRLPSLSGSDGIPYRTVSEWLESIRMKRYILHFHSAGLDTMECVLELTAEDLTQMGITLPGHQKRILCSIQGFKD
# B4: ZAP70 (protein)
# chain: MPDPAAHLPFFYGSISRAEAEEHLKLAGMADGLFLLRQCLRSLGGYVLSLVHDVRFHHFPIERQLNGTYAIAGGKAHCGPAELCEFYSRDPDGLPCNLRKPCNRPSGLEPQPGVFDCLRDAMVRDYVRQTWKLEGEALEQAIISQAPQVEKLIATTAHERMPWYHSSLTREEAERKLYSGAQTDGKFLLRPRKEQGTYALSLIYGKTVYHYLISQDKAGKYCIPEGTKFDTLWQLVEYLKLKADGLIYCLKEACPNSSASNASGAAAPTLPAHPSTLTHPQRRIDTLNSDGYTPEPARITSPDKPRPMPMDTSVYESPYSDPEELKDKKLFLKRDNLLIADIELGCGNFGSVRQGVYRMRKKQIDVAIKVLKQGTEKADTEEMMREAQIMHQLDNPYIVRLIGVCQAEALMLVMEMAGGGPLHKFLVGKREEIPVSNVAELLHQVSMGMKYLEEKNFVHRDLAARNVLLVNRHYAKISDFGLSKALGADDSYYTARSAGKWPLKWYAPECINFRKFSSRSDVWSYGVTMWEALSYGQKPYKKMKGPEVMAFIEQGKRMECPPECPPELYALMSDCWIYKWEDRPDFLTVEQRMRACYYSLASKVEGPPGSTQKAEAACA
# B5: TEC (protein)
# chain: MNFNTILEEILIKRSQQKKKTSPLNYKERLFVLTKSMLTYYEGRAEKKYRKGFIDVSKIKCVEIVKNDDGVIPCQNKYPFQVVHDANTLYIFAPSPQSRDLWVKKLKEEIKNNNNIMIKYHPKFWTDGSYQCCRQTEKLAPGCEKYNLFESSIRKALPPAPETKKRRPPPPIPLEEEDNSEEIVVAMYDFQAAEGHDLRLERGQEYLILEKNDVHWWRARDKYGNEGYIPSNYVTGKKSNNLDQYEWYCRNMNRSKAEQLLRSEDKEGGFMVRDSSQPGLYTVSLYTKFGGEGSSGFRHYHIKETTTSPKKYYLAEKHAFGSIPEIIEYHKHNAAGLVTRLRYPVSVKGKNAPTTAGFSYEKWEINPSELTFMRELGSGLFGVVRLGKWRAQYKVAIKAIREGAMCEEDFIEEAKVMMKLTHPKLVQLYGVCTQQKPIYIVTEFMERGCLLNFLRQRQGHFSRDVLLSMCQDVCEGMEYLERNSFIHRDLAARNCLVSEAGVVKVSDFGMARYVLDDQYTSSSGAKFPVKWCPPEVFNYSRFSSKSDVWSFGVLMWEVFTEGRMPFEKYTNYEVVTMVTRGHRLYQPKLASNYVYEVMLRCWQEKPEGRPSFEDLLRTIDELVECEETFGR
# B6: ADRBK1(GRK2) (protein)
# chain: MADLEAVLADVSYLMAMEKSKATPAARASKKILLPEPSIRSVMQKYLEDRGEVTFEKIFSQKLGYLLFRDFCLNHLEEARPLVEFYEEIKKYEKLETEEERVARSREIFDSYIMKELLACSHPFSKSATEHVQGHLGKKQVPPDLFQPYIEEICQNLRGDVFQKFIESDKFTRFCQWKNVELNIHLTMNDFSVHRIIGRGGFGEVYGCRKADTGKMYAMKCLDKKRIKMKQGETLALNERIMLSLVSTGDCPFIVCMSYAFHTPDKLSFILDLMNGGDLHYHLSQHGVFSEADMRFYAAEIILGLEHMHNRFVVYRDLKPANILLDEHGHVRISDLGLACDFSKKKPHASVGTHGYMAPEVLQKGVAYDSSADWFSLGCMLFKLLRGHSPFRQHKTKDKHEIDRMTLTMAVELPDSFSPELRSLLEGLLQRDVNRRLGCLGRGAQEVKESPFFRSLDWQMVFLQKYPPPLIPPRGEVNAADAFDIGSFDEEDTKGIKLLDSDQELYRNFPLTISERWQQEVAETVFDTINAETDRLEARKKAKNKQLGHEEDYALGKDCIMHGYMSKMGNPFLTQWQRRYFYLFPNRLEWRGEGEAPQSLLTMEEIQSVEETQIKERKCLLLKIRGGKQFILQCDSDPELVQWKKELRDAYREAQQLVQRVPKMKNKPRSPVVELSKVPLVQRGSANGL
# Target: T1, Bovine, dephosphorylated, Myelin Basic Protein (MBP), P02687
# T1 chain: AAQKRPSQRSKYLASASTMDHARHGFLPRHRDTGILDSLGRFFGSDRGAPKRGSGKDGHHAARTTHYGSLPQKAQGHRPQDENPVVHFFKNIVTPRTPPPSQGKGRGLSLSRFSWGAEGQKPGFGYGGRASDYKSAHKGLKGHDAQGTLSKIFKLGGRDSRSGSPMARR
row,Protein,MBP Kinase Activity
1,B1,Negative
2,B2,Strong
3,B3,Strong
4,B4,Negative
5,B5,Negative
6,B6,Negative
